Source: patent publication US20200362050A1 (BLACK BELT THERAPEUTICS, published 2020)
One block for each molecule: values may come before it.

Assays:
[1] = target: recombinant human CD38 his tagged (extracellular domain) (human) (UniProt P28907); assay: Forte Bio BLI, IgG on AHQ sensors
[2] = target: T1, human CD38 expressed on human cell lines (Daudi, Ramos, Raji, Jurkat) (human, UniProt P28907 1-300); assay: flow cytometry on Daudi cells, secondary rabbit anti-human Fcg F(ab')2, MFI against log antibody concentration
T1 construct: Endogenous CD38 of the cell lines; also called CD38 expressed on cell lines of human origin
T1 sequence: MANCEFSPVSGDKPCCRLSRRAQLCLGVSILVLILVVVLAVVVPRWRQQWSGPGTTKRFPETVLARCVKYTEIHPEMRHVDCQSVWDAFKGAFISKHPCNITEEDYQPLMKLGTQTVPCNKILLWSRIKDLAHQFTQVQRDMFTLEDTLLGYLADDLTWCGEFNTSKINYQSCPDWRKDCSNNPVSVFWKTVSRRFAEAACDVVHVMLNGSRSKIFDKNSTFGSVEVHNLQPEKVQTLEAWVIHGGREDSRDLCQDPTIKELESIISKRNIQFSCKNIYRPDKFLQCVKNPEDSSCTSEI
Description: (§1) Binding of anti-CD38 Antibodies to CD38-expressing cells: The candidate hits are evaluated by binding to lymphoblast like human cell lines, Ramos and Daudi. Binding to CD38 expressing human cell lines (Ramos and Daudi) was examined by staining test articles (anti-CD38 primary antibodies) with 20 μg/ml antibodies followed by semi-log dilution series (7-point) for 30 minutes on ice. This was followed by staining with a secondary antibody (rabbit anti-human Fcg F(ab′)2) concentration of 5 μg/ml for 30 minutes on ice. All samples were stained in triplicates. To minimize cross-linking induced cell death mediated by binding of the secondary antibody, cell lines were examined in staining cohorts of 4 test articles at a time. Live cells were gated using FSC vs SSC parameters by flow cytometry during sample acquisition. Mean fluorescence intensity (MFI) of stained cells were plotted on an XY chart, graphing MFI against the log of the concentration, and the data fit to a non-linear regression curve from which the EC50 is calculated.

[3] = target: T2, recombinant human CD38 his tagged (extracellular domain) (human, UniProt P28907 43-300); assay: SPR, Biacore 2000, antibody captured by anti-human antibody, rhCD38-his as analyte
T2 construct: Bought from Sino Biological; also called rhCD38; rhCD38-his; not shown: Histidine tag
T2 sequence: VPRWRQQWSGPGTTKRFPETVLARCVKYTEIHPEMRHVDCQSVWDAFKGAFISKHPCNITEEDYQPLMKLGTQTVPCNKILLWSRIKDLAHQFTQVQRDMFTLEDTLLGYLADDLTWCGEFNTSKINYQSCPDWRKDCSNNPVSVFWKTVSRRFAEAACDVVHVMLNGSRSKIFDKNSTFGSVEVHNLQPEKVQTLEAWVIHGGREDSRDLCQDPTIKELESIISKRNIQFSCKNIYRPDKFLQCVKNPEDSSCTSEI

[4] = target: T1, human CD38 expressed on human cell …; assay: flow cytometry on Ramos cells, secondary rabbit anti-human Fcg F(ab')2, MFI against log antibody concentration
Description: as §1

[5] = target: T2, recombinant human CD38 his tagged …; assay: BLI (Octet), avidity format: rhCD38-his loaded on Ni-NTA sensor, antibody in solution
Description: Avidity binding measurements of anti-CD38 Antibodies: Ni-NTA sensors were equilibrated off-line in assay buffer for 30 minutes and then monitored on-line for 60 seconds for baseline establishment. […] Then the antibody was associated at different concentrations (as described in FIGS. 8) for 50 min. Afterwards they were transferred to assay buffer for 30 minutes for off-rate measurement. Kinetics data were fit using a 1:1 binding model in the data analysis software provided by ForteBio.

[6] = target: T2, recombinant human CD38 his tagged …; assay: BLI (Octet / Forte Bio), IgG against monovalent human CD38-HIS (affinity)

Kd [1]: 9 nM
Molecule: IB4, reference monoclonal agonistic mouse anti-human CD38 antibody

EC50 (read off the curve) [2]: ~0.2 µg/mL
Kd [3]: 0.65 nM
EC50 (read off the curve) [4]: ~0.4 µg/mL
B1: aCD38-a-309 human IgG1 (aCD38-a-309-hIgG1) (antibody, V domains shown)
VH: EVQLVESGGGLVKPGGSLRLSCAASGFTFSSYSMNWVRQAPGKGLEWVSSISSSSNYIYYADSVKGRFTISRDNAKNSLYLQMNSLRAEDTAVYYCAREPIYTSGWPFDIWGQGTMVIVSS
VL: EIVLTQSPATLSLSPGERATLSCRASQSVSSYLAWYQQKPGQAPRLLIYDASNRATGIPARFSGSGSGTDFTLTISSLEPEDFAVYYCQQHVNFPWTFGGGTKVEIK
notes: They are assigned here because the control is a human IgG1 isotype; not shown: human IgG1 heavy chain constant region, P01857; human kappa light chain constant region, P01834

Kd [5]: 0.134 nM
Kd [6]: 32.9 nM
B2: aCD38-a-309-IgG4 (antibody, V domains shown)
VH: EVQLVESGGGLVKPGGSLRLSCAASGFTFSSYSMNWVRQAPGKGLEWVSSISSSSNYIYYADSVKGRFTISRDNAKNSLYLQMNSLRAEDTAVYYCAREPIYTSGWPFDIWGQGTMVIVSS
VL: EIVLTQSPATLSLSPGERATLSCRASQSVSSYLAWYQQKPGQAPRLLIYDASNRATGIPARFSGSGSGTDFTLTISSLEPEDFAVYYCQQHVNFPWTFGGGTKVEIK
